Tests used:
adult rat cardiomyocytes [1] = experiment: Caspase-Glo 9 and 3/7 assays of H2O2 induced apoptosis; format: cell-based; conditions: 10 nM for 30 min, 100 μM H2O2, 5 h
Protocol: FIGS. 2B and 2C are bar graphs showing relative caspase activity. Adult rat cardiomyocytes were freshly isolated and treated ±10 nM of HASF for 30 min, and then challenged with 100 μM of H2O2 for various time points. H2O2 induced apoptosis in cardiomyocytes was evidenced by the dynamic increase in the activities of the initiator Caspase 9 and effector Caspase […] at 5 h, 7 h and 9 h respectively. Y axis represent the relative amount of luminescence indicating the relative amount of active Caspase activities. ** P<0.01 and *** P<0.001. Data are presented as means±standard deviation of triplicates.
FIG. 3C is a bar graph showing fold-change in caspase activity. Serum-starved adult rat cardiomyocytes were treated with 3 μM PKC inhibitors or vehicle DMSO for 30 minutes, then 100 nM HASF recombinant protein was added for 30 minutes followed by treatment with 200 μM H2O2 for 3 hours. Apoptosis was determined by detection of Caspase-9 activity using a homogeneous luminescent assay. All samples were measured in triplicates. *P<0.05 vs. non-HASF treated cells.
FIG. 4C is a bar graph showing relative caspase activity in adult cardiomyocytes. Apoptosis as determined by detection of Caspase-9 activity on adult rat cardiomyocytes pre-treated with 178 μM PKC translocation inhibitor peptide for 10 minutes and then with 100 nM of HASF for 30 minutes. Thereafter, cells were challenged with 200 μM H2O2 for 3 hours. All samples were measured in triplicates. *P <0.05 vs. non-HASF treated cells and the experiment was repeated multiple times.
Adult rat ventricular cardiomyocytes were isolated from 6 weeks old female Sprague-Dawley rat (Harlan World Headquarters, Indianapolis, Ill., USA) hearts by enzymatic digestion and were seeded in (6-well) plates or Delta T culture dishes (Bioptechs, Inc., Pa.) pre-coated with 1 μg/cm2 of laminin (Sigma) at 5×10^4/well and cultured overnight in serum-free M199 medium (Sigma), supplemented with 2 mM of L-carnitine, 5 mM of creatine, 5 mM of taurine, 0.2% of albumin, 100 U/ml of penicillin and 100 μg/ml of streptomycin. […]

adult rat cardiomyocytes [2] = experiment: DNA fragmentation and apoptosis-related protein western blotting; format: cell-based
Protocol: FIGS. 7A-C are a series of photographs showing the effects of HASF in cytochrome c, Bcl2, Bax and DNA degradation. In FIG. 7A, Adult rat cardiomyocytes were treated with +10 nM of HASF for 30 min, and then challenged with 100 μM of H2O2 for 6 h. Mitochondrial fraction or cytosolic fraction or total cell lysate were extracted and separated in 15% SDS-PAGE and transferred to nitrocellulose membrane and probed with mouse anti-Cytochrome C monoclonal antibody. Lane 1-2, —H2O2 control; lane 3-4, +H2O2 control; lane 5-8, four individual samples of +HASF recombinant protein and then +H2O2. In FIG. 7B, Western blot of mitochondrial fractions with Bcl2 and Bax antibodies respectively. Lane 1, —H2O2control; lane 2, +H2O2control; lane 3-6, four individual samples of +HASF and then +H2O2. In FIG. 7C, adult rat cardiomyocytes were treated +10 nM of HASF for 30 min, and then challenged with 100 μM of H2O2 for overnight (˜15 h). Genomic DNA was extracted and separated on 1% agarose gel. H2O2 induced apoptosis in cardiomyocytes was companied by typical DNA fragmentation (laddering) at late-stage apoptosis. Pre-incubation of cardiomyocytes with 10 nM of this HASF recombinant protein inhibited the DNA laddering to a noticeable extends. Lane 1, DNA marker; lane 2, —H2O2control; lane 3-4, +H2O2; lane 5-6, +HASF recombinant protein and then +H2O2.
Adult rat ventricular cardiomyocytes were isolated from 6 weeks old female Sprague-Dawley rat (Harlan World Headquarters, Indianapolis, Ill., USA) hearts by enzymatic digestion and were seeded in (6-well) plates or Delta T culture dishes (Bioptechs, Inc., Pa.) pre-coated with 1 μg/cm2 of laminin (Sigma) at 5×10^4/well and cultured overnight in serum-free M199 medium (Sigma), supplemented with 2 mM of L-carnitine, 5 mM of creatine, 5 mM of taurine, 0.2% of albumin, 100 U/ml of penicillin and 100 μg/ml of streptomycin. Cells were briefly treated without or with PKC inhibitor (with vehicle saponin), then recombinant protein HASF (10 or 100 nM) was added into cells for 30 min, with PBS used as vehicle controls. The cells were challenged with H2O2 for various time points. For the Caspase assays, cardiomyocytes were scraped off plates in lysis buffer and were analyzed by a luminescent plate reader with Caspase-Glo 3/7 and or Caspase-Glo 9 kits (Promega); and for DNA fragmentation, genomic DNA from cardiomyocytes was extracted and separated on 1% agarose gel electrophoreses, with Apoptotic DNA Ladder Extraction Kit (BioVision), according to manufacturers' instructions. […]

[3] = test system: rat myocardial infarction; experiment: In vivo ischemia/reperfusion injury, fibrosis (Masson's trichrome); conditions: 1 μg intramyocardial, 4 weeks after ischemia/reperfusion
Protocol: FIG. 5C is a series of photographs and a bar graph showing fibrosis. For fibrosis analysis, animals were sacrificed 4 weeks after the initial ischemia/reperfusion injury and serial cryosections of 5 μm thick were made immediately below the ligation area, 10 sections for each heart were analyzed. HASF injected group N=8 rats. PBS injected control group N=6. Brilliant blue color stained collagen area was quantified using ImageJ computer software and the mean of % fibrosis was calculated as collagen positive area/total area. *** P<0.001.
Female Sprague-Dawley rats were used for all in vivo experiments. A midsternal thoracotomy was performed to expose the anterior surface of the heart after anesthesia. The proximal left […] coronary artery (LAD) was identified and a 6.0 suture (Ethicon) was placed around the artery and surrounding myocardium. […]
For fibrosis analysis, animals were sacrificed 4 weeks after the initial 30 min ischemia/24 h reperfusion injury and serial cyrosections of 5 μm thick were made immediately below the ligation area, 10 sections for each heart analyzed, and with 8 rats in HASF protein injected group and 6 rats in PBS injected control group. […] Brilliant blue color stained collagen area was quantified using ImageJ computer software and the mean of % fibrosis was calculated as collagen positive area/total area.

B1: HASF: Hypoxia regulated Akt MSC Factor, secreted protein encoded by C3orf58; recombinant human protein without N-signal sequence, SEQ ID NO:1 or 2 (protein, UniProt Q8NDZ4 36-430, looked up)
Divergent protein kinase …: LASWQRNELTDRRFLQLNKCPACFGTSWCRRFLNGQVVFEAWGRLRLLDFLNVKNVYFAQYGEPREGGRRRVVLKRLGSQRELAQLDQSICKRATGRPRCDLLQAMPRTEFARLNGDVRLLTPEAVEGWSDLVHCPSQRLLDRLVRRYAETKDSGSFLLRNLKDSERMQLLLTLAFNPEPLVLQSFPSDEGWPFAKYLGACGRMVAVNYVGEELWSYFNAPWEKRVDLAWQLMEIAEQLTNNDFEFALYLLDVSFDNFAVGPRDGKVIIVDAENVLVADKRLIRQNKPENWDVWYESKFDDCDKEACLSFSKEILCARATVDHNYYAVCQNLLSRHATWRGTSGGLLHDPPSEIAKDGRLEALLDECANPKKRYGRFQAAKELREYLAQLSNNVR
modifications: 6xHis tag
reduction of Caspase 3/7 (adult rat cardiomyocytes [1]): ~45% | reduction of Caspase 9 (adult rat cardiomyocytes [1]): ~38% | mitochondrial anti-apoptotic Bcl-2 protein level (adult rat cardiomyocytes [2]; 10 nM for 30 min, 100 μM H2O2): increased levels | cytochrome C release into the cytosol (adult rat cardiomyocytes [2]; 10 nM for 30 min, 100 μM H2O2 6 h): prevention of cytochrome C release into the cytosol | DNA fragmentation (adult rat cardiomyocytes [2]; 10 nM for 30 min, 100 μM H2O2 overnight (~15 h)): reduction of DNA fragmentation | translocation of Bax protein from cytosol into mitochondria (adult rat cardiomyocytes [2]; H2O2 induced apoptosis): did not prevent | reduction of infarct fibrosis compared to control untreated animals [3]: 61% | scar (myocardial fibrosis) [3]: 5.7±1.5 % of LV area

Source: US20120172306A1, “Use of HASF as a Protective Agent Against Ischemic Tissue Damage” (Duke University, priority 2009, published 2012)
